Assay results reported in article PMC11199699.

How the values were obtained:
Experiment in all cases: purified protein
purified protein [1] = substrate: C[C@H](O)[C@@H](O)CC(=O)C(=O)O; type: biochemical, Herbaspirillum huttiense; conditions: 1.5 mM NAD+, 50 mM Tris-HCl pH 8.0, 30 °C
purified protein [2] = substrate: NC(=O)c1ccc[n+]([C@@H]2O[C@H](COP(=O)(O)OP(=O)(O)OC[C@H]3O[C@@H](n4cnc5c(N)ncnc54)[C@H](OP(=O)(O)O)[C@@H]3O)[C@@H](O)[C@H]2O)c1; type: biochemical, Herbaspirillum huttiense; conditions: 10 mM substrate, 50 mM Tris-HCl pH 8.0, 30 °C, varied: cofactor
purified protein [3] = substrate: O=C(O)C(=O)C[C@H](O)CO; type: biochemical, Herbaspirillum huttiense; conditions: 1.5 mM NAD+, 50 mM Tris-HCl pH 8.0, 30 °C
purified protein [4] = substrate: O=C(O)C(=O)C[C@H](O)[C@H](O)CO; type: biochemical, Herbaspirillum huttiense; conditions: 1.5 mM NAD+, 50 mM Tris-HCl pH 8.0, 30 °C
purified protein [5] = substrate: O=C(O)C(=O)C[C@H](O)[C@@H](O)CO; type: biochemical, Herbaspirillum huttiense; conditions: 1.5 mM NAD+, 50 mM Tris-HCl pH 8.0, 30 °C
purified protein [6] = substrate: NC(=O)c1ccc[n+]([C@@H]2O[C@H](COP(=O)(O)OP(=O)(O)OC[C@H]3O[C@@H](n4cnc5c(N)ncnc54)[C@H](O)[C@@H]3O)[C@@H](O)[C@H]2O)c1; type: biochemical, Herbaspirillum huttiense; conditions: 10 mM substrate, 50 mM Tris-HCl pH 8.0, 30 °C, varied: cofactor
purified protein [7] = substrate: O=C(O)[C@@H]1C[C@H](O)CN1; type: biochemical, Herbaspirillum huttiense; conditions: 1.5 mM NAD+, 50 mM Tris-HCl pH 8.0, 30 °C
purified protein [8] = substrate: C[C@@H](O)CC(=O)O; type: biochemical, Herbaspirillum huttiense; conditions: 1.5 mM NAD+, 50 mM Tris-HCl pH 8.0, 30 °C
purified protein [9] = substrate: O=C(O)C(=O)C[C@@H](O)CO; type: biochemical, Herbaspirillum huttiense; conditions: 1.5 mM NAD+, 50 mM Tris-HCl pH 8.0, 30 °C
purified protein [10] = substrate: O=C(O)[C@H]1C[C@@H](O)CN1; type: biochemical, Herbaspirillum huttiense; conditions: 1.5 mM NAD+, 50 mM Tris-HCl pH 8.0, 30 °C, substrate range 1-10 mM (Km extrapolated)
purified protein [11] = substrate: O=C(O)[C@@H]1C[C@@H](O)CN1; type: biochemical, Herbaspirillum huttiense; conditions: 1.5 mM NAD+, 50 mM Tris-HCl pH 8.0, 30 °C
purified protein [12] = substrate: C[C@H](O)[C@@H](O)CC(=O)C(=O)O; type: biochemical, Homo sapiens; conditions: 1.5 mM NAD+, 50 mM Tris-HCl pH 8.0, 30 °C
purified protein [13] = substrate: O=C(O)[C@@H]1C[C@H](O)CN1; type: biochemical, Homo sapiens; conditions: 1.5 mM NAD+, 50 mM Tris-HCl pH 8.0, 30 °C
purified protein [14] = substrate: C[C@@H](O)CC(=O)O; type: biochemical, Homo sapiens; conditions: 1.5 mM NAD+, 50 mM Tris-HCl pH 8.0, 30 °C, substrate range 1-10 mM (Km extrapolated)

B1: L-KDFDH (FucF; C785_RS13675) (Herbaspirillum huttiense subsp. putei IAM 15032) (protein)
chain: MSASTGRLAGKTVLITAAAQGIGRASTELFAREGARVIATDISKTHLEELASIAGVETHLLDVTDDDAIKALVAKVGTVDVLFNCAGYVAAGNILECDDKAWDFSFNLNAKAMFHTIRAVLPGMLAKKAGSIVNIASAASSVKGVANRFAYGASKAAVVGLTKSVAADFVSQGIRCNAICPGTIESPSLNQRISTQAKETGKSEDEVRAAFVARQPMGRIGKAEEVAALALYLASDESNFTTGSIHMIDGGWSN
notes: pQE-80L, N-terminal (His)6-tag, expressed in E. coli, Ni-NTA; homotetramer; EC 1.1.1.434
Km (purified protein [1]): 115 ± 15 µM | kcat (purified protein [1]): 15 ± 0.317 s⁻¹ | kcat/Km (purified protein [1]): 132000 ± 14000 M⁻¹ s⁻¹ | Km (purified protein [2]): 1770 ± 300 µM | kcat (purified protein [2]): 0.0678 ± 0.01 s⁻¹ | kcat/Km (purified protein [2]): 38.5 ± 1 M⁻¹ s⁻¹ | Km (purified protein [3]): 2580 ± 240 µM | kcat (purified protein [3]): 27.5 ± 2.03 s⁻¹ | kcat/Km (purified protein [3]): 10700 ± 267 M⁻¹ s⁻¹ | Km (purified protein [4]): 6600 ± 550 µM | kcat (purified protein [4]): 8.25 ± 0.35 s⁻¹ | kcat/Km (purified protein [4]): 1250 ± 55 M⁻¹ s⁻¹ | Km (purified protein [5]): 808 ± 73 µM | kcat (purified protein [5]): 19.8 ± 1.2 s⁻¹ | kcat/Km (purified protein [5]): 24700 ± 750 M⁻¹ s⁻¹ | Km (purified protein [6]): 30.2 ± 3 µM | kcat (purified protein [6]): 29.2 ± 1.3 s⁻¹ | kcat/Km (purified protein [6]): 972000 ± 58700 M⁻¹ s⁻¹ | Km (purified protein [7]): 4190 ± 350 µM | kcat (purified protein [7]): 0.742 ± 0.0233 s⁻¹ | kcat/Km (purified protein [7]): 178 ± 10 M⁻¹ s⁻¹ | Km (purified protein [8]): 1790 ± 570 µM | kcat (purified protein [8]): 0.00137 ± 0.000167 s⁻¹ | kcat/Km (purified protein [8]): 0.795 ± 0.137 M⁻¹ s⁻¹ | Km (purified protein [9]): 5510 ± 660 µM | kcat (purified protein [9]): 3.37 ± 0.183 s⁻¹ | kcat/Km (purified protein [9]): 615 ± 36.7 M⁻¹ s⁻¹ | Km (purified protein [10]): 37800 ± 11500 µM | Km (purified protein [11]): 2260 ± 270 µM | kcat (purified protein [11]): 0.00165 ± 0.000105 s⁻¹ | kcat/Km (purified protein [11]): 0.737 ± 0.045 M⁻¹ s⁻¹

B2: BDH2 (Homo sapiens) (protein)
chain: MGRLDGKVIILTAAAQGIGQAAALAFAREGAKVIATDINESKLQELEKYPGIQTRVLDVTKKKQIDQFANEVERLDVLFNVAGFVHHGTVLDCEEKDWDFSMNLNVRSMYLMIKAFLPKMLAQKSGNIINMSSVASSVKGVVNRCVYSTTKAAVIGLTKSVAADFIQQGIRCNCVCPGTVDTPSLQERIQARGNPEEARNDFLKRQKTGRFATAEEIAMLCVYLASDESAYVTGNPVIIDGGWSL
notes: recombinant (His)6-tagged, expressed in E. coli, purified
Km (purified protein [12]): 32.2 ± 3.3 µM | kcat (purified protein [12]): 3.67 ± 0.183 s⁻¹ | kcat/Km (purified protein [12]): 114000 ± 5830 M⁻¹ s⁻¹ | Km (purified protein [13]): 220 ± 61 µM | kcat (purified protein [13]): 4.88 ± 0.5 s⁻¹ | kcat/Km (purified protein [13]): 22800 ± 3670 M⁻¹ s⁻¹ | Km (purified protein [14]): 18500 ± 2900 µM | kcat (purified protein [14]): 0.0698 ± 0.00483 s⁻¹ | kcat/Km (purified protein [14]): 3.8 ± 0.333 M⁻¹ s⁻¹

B3: L-KDFDH (FucF; C785_RS13675) (Herbaspirillum huttiense subsp. putei IAM 15032; W252M) (protein)
chain: MSASTGRLAGKTVLITAAAQGIGRASTELFAREGARVIATDISKTHLEELASIAGVETHLLDVTDDDAIKALVAKVGTVDVLFNCAGYVAAGNILECDDKAWDFSFNLNAKAMFHTIRAVLPGMLAKKAGSIVNIASAASSVKGVANRFAYGASKAAVVGLTKSVAADFVSQGIRCNAICPGTIESPSLNQRISTQAKETGKSEDEVRAAFVARQPMGRIGKAEEVAALALYLASDESNFTTGSIHMIDGGMSN
notes: as for B1
Km (purified protein [1]): 219 ± 6 µM | kcat (purified protein [1]): 6.62 ± 0.167 s⁻¹ | kcat/Km (purified protein [1]): 30000 ± 83.3 M⁻¹ s⁻¹

B4: L-KDFDH (FucF; C785_RS13675) (Herbaspirillum huttiense subsp. putei IAM 15032; D41S/I42R) (protein)
chain: MSASTGRLAGKTVLITAAAQGIGRASTELFAREGARVIATSRSKTHLEELASIAGVETHLLDVTDDDAIKALVAKVGTVDVLFNCAGYVAAGNILECDDKAWDFSFNLNAKAMFHTIRAVLPGMLAKKAGSIVNIASAASSVKGVANRFAYGASKAAVVGLTKSVAADFVSQGIRCNAICPGTIESPSLNQRISTQAKETGKSEDEVRAAFVARQPMGRIGKAEEVAALALYLASDESNFTTGSIHMIDGGWSN
notes: as for B1
Km (purified protein [2]): 200 ± 4 µM | kcat (purified protein [2]): 3.6 ± 0.0667 s⁻¹ | kcat/Km (purified protein [2]): 18050 ± 83.3 M⁻¹ s⁻¹
